Measurements taken from patent publication US20150344570A1 (published 2015).

B1: GpH7-A5/GpH7-B3 variant N325_13S/GpL16-k0 (antibody, human IgG1, kappa)
heavy 1: not shown
heavy 2: not shown
light: DIVMTQSPLSLPVTPGEPASISCQASESLVHSNRNTYLHWYLQKPGQSPQLLIYKVSNRFSGVPDRFSGSGSGTDFTLKISRVEAEDVGVYYCSQNTHVPPTFGQGTKVEIERTVAAPSVFIFPPSDEQLKSGTASVVCLLNNFYPREAKVQWKVDNALQSGNSQESVTEQDSKDSTYSLSSTLTLSKADYEKHKVYACEVTHQGLSSPVTKSFNRGEC
notes: Heterodimerized IgG1 antibody; alteration in the GpH7-B3 chain only; also called He Ab
B2: GpH7-A5/GpH7-B3 variant Y300_10E/GpL16-k0 (antibody, human IgG1, kappa)
heavy 1: not shown
heavy 2: not shown
light: B1 light
notes: as for B1
B3: GpH7-A5/GpH7-B3 variant S298_05P/GpL16-k0 (antibody, human IgG1, kappa)
heavy 1: not shown
heavy 2: not shown
light: B1 light
notes: as for B1
B4: GpH7-A5/GpH7-B3 variant N325_15Y/GpL16-k0 (antibody, human IgG1, kappa)
heavy 1: not shown
heavy 2: not shown
light: B1 light
notes: as for B1
B5: GpH7-A5/GpH7-B3 variant N325_19Q/GpL16-k0 (antibody, human IgG1, kappa)
heavy 1: not shown
heavy 2: not shown
light: B1 light
notes: as for B1
B6: GpH7-A5/GpH7-B3 variant P271_14T/GpL16-k0 (antibody, human IgG1, kappa)
heavy 1: not shown
heavy 2: not shown
light: B1 light
notes: as for B1
B7: GpH7-A5/GpH7-B3 variant S324_05P/GpL16-k0 (antibody, human IgG1, kappa)
heavy 1: not shown
heavy 2: not shown
light: B1 light
notes: as for B1
B8: GpH7-A5/GpH7-B3 variant P271_09D/GpL16-k0 (antibody, human IgG1, kappa)
heavy 1: not shown
heavy 2: not shown
light: B1 light
notes: as for B1
B9: GpH7-A5/GpH7-B3 variant S298_08L/GpL16-k0 (antibody, human IgG1, kappa)
heavy 1: not shown
heavy 2: not shown
light: B1 light
notes: as for B1
B10: GpH7-A5/GpH7-B3 variant Y296_13S/GpL16-k0 (antibody, human IgG1, kappa)
heavy 1: not shown
heavy 2: not shown
light: B1 light
notes: as for B1
B11: GpH7-A5/GpH7-B3 variant Y296_11K/GpL16-k0 (antibody, human IgG1, kappa)
heavy 1: not shown
heavy 2: not shown
light: B1 light
notes: as for B1
B12: GpH7-A5/GpH7-B3 variant N325_14T/GpL16-k0 (antibody, human IgG1, kappa)
heavy 1: not shown
heavy 2: not shown
light: B1 light
notes: as for B1
B13: GpH7-A5/GpH7-B3 variant N325_20W/GpL16-k0 (antibody, human IgG1, kappa)
heavy 1: not shown
heavy 2: not shown
light: B1 light
notes: as for B1
B14: GpH7-A5/GpH7-B3 variant Y296_18N/GpL16-k0 (antibody, human IgG1, kappa)
heavy 1: not shown
heavy 2: not shown
light: B1 light
notes: as for B1
B15: GpH7-A5/GpH7-B3 variant Y296_01G/GpL16-k0 (antibody, human IgG1, kappa)
heavy 1: not shown
heavy 2: not shown
light: B1 light
notes: as for B1
B16: GpH7-A5/GpH7-B3 variant Y296_16H/GpL16-k0 (antibody, human IgG1, kappa)
heavy 1: not shown
heavy 2: not shown
light: B1 light
notes: as for B1
B17: GpH7-A5/GpH7-B3 variant Y296_14T/GpL16-k0 (antibody, human IgG1, kappa)
heavy 1: not shown
heavy 2: not shown
light: B1 light
notes: as for B1
B18: GpH7-B3 variant K334_01G/GpL16-k0 (antibody, human IgG1, kappa)
heavy: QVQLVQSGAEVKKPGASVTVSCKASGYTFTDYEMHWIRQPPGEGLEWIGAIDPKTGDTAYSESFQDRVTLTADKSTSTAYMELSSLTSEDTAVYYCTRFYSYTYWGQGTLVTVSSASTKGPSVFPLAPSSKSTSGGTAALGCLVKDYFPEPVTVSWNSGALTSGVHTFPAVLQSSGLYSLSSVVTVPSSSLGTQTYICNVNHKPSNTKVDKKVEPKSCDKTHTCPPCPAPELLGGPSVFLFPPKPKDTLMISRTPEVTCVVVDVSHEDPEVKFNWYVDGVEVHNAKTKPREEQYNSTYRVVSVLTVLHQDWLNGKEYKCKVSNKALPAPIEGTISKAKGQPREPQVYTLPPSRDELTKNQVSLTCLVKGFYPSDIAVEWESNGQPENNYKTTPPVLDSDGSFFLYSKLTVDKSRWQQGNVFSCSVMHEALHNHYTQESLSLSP
light: B1 light
notes: Alteration in both H chains; also called Ho Ab K334_01G
B19: GpH7-B3 variant I336_16H/GpL16-k0 (antibody, human IgG1, kappa)
heavy: not shown
light: B1 light
notes: Alteration in both H chains; also called Ho Ab I336_16H
B20: GpH7-B3 variant K334_19Q/GpL16-k0 (antibody, human IgG1, kappa)
heavy: not shown
light: B1 light
notes: Alteration in both H chains; also called Ho Ab K334_19Q
B21: GpH7-B3 variant K334_08L/GpL16-k0 (antibody, human IgG1, kappa)
heavy: not shown
light: B1 light
notes: Alteration in both H chains; also called Ho Ab K334_08L
B22: GpH7-B3 variant K334_16H/GpL16-k0 (antibody, human IgG1, kappa)
heavy: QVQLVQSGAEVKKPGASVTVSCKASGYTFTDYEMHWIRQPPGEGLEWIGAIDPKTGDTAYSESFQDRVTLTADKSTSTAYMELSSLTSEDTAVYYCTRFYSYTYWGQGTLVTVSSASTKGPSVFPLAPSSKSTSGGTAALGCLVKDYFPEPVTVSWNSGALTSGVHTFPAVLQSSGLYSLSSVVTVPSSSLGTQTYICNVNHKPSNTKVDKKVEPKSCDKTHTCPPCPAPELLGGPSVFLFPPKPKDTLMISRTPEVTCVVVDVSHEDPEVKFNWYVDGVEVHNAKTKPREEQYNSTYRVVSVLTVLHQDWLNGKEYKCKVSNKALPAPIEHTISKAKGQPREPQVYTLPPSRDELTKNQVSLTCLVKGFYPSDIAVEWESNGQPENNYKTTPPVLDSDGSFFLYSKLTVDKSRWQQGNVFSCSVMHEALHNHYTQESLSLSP
light: B1 light
notes: Alteration in both H chains; also called Ho Ab K334_16H
B23: GpH7-B3 variant K334_09D/GpL16-k0 (antibody, human IgG1, kappa)
heavy: not shown
light: B1 light
notes: Alteration in both H chains; also called Ho Ab K334_09D
B24: GpH7-B3 variant L328_15Y/GpL16-k0 (antibody, human IgG1, kappa)
heavy: not shown
light: B1 light
notes: Alteration in both H chains; also called Ho Ab L328_15Y
B25: GpH7-B3 variant K334_04F/GpL16-k0 (antibody, human IgG1, kappa)
heavy: not shown
light: B1 light
notes: Alteration in both H chains; also called Ho Ab K334_04F
B26: GpH7-B3 variant K326_03V/GpL16-k0 (antibody, human IgG1, kappa)
heavy: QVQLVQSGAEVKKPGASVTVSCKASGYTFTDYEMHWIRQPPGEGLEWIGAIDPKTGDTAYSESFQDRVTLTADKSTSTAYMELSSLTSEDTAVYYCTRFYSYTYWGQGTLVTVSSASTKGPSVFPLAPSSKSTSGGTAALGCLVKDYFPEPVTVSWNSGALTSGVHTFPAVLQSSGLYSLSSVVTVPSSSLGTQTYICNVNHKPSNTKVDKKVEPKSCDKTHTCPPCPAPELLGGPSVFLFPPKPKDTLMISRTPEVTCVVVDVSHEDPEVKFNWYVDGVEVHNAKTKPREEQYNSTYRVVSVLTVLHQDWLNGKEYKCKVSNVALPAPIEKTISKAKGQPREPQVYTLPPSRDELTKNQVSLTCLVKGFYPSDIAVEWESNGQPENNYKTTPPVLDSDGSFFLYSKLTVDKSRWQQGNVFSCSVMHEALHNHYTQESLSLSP
light: B1 light
notes: Alteration in both H chains; also called Ho Ab K326_03V
B27: GpH7-B3 variant K326_07I/GpL16-k0 (antibody, human IgG1, kappa)
heavy: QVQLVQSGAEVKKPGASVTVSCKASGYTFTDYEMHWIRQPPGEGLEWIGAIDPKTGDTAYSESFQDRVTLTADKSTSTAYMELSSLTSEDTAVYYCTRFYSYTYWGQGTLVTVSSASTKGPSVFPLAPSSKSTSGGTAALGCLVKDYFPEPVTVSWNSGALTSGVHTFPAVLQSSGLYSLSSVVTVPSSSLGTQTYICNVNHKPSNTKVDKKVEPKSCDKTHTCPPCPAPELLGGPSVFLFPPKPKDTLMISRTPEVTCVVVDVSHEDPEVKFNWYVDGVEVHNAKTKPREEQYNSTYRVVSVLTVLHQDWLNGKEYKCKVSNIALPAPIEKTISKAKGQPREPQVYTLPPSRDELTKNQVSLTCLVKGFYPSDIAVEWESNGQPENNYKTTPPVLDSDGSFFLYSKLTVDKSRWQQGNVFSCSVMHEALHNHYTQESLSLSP
light: B1 light
notes: Alteration in both H chains; also called Ho Ab K326_07I
B28: GpH7-B3 variant K326_09D/GpL16-k0 (antibody, human IgG1, kappa)
heavy: not shown
light: B1 light
notes: Alteration in both H chains; also called Ho Ab K326_09D
B29: GpH7-B3 variant K334_15Y/GpL16-k0 (antibody, human IgG1, kappa)
heavy: not shown
light: B1 light
notes: Alteration in both H chains; also called Ho Ab K334_15Y
B30: GpH7-B3 variant K326_20W/GpL16-k0 (antibody, human IgG1, kappa)
heavy: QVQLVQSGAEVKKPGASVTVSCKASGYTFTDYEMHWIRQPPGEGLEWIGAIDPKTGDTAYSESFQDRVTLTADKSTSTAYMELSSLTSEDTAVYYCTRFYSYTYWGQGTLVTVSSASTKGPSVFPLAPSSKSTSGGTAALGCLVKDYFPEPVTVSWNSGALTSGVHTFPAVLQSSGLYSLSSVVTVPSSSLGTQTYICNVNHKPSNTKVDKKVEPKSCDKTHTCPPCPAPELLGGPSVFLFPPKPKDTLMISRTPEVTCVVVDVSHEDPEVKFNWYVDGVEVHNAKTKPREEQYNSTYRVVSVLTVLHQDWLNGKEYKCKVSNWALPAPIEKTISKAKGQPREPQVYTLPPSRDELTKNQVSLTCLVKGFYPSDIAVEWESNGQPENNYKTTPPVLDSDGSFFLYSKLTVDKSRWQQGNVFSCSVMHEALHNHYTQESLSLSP
light: B1 light
notes: Alteration in both H chains; also called Ho Ab K326_20W
B31: GpH7-B3 variant K326_04F/GpL16-k0 (antibody, human IgG1, kappa)
heavy: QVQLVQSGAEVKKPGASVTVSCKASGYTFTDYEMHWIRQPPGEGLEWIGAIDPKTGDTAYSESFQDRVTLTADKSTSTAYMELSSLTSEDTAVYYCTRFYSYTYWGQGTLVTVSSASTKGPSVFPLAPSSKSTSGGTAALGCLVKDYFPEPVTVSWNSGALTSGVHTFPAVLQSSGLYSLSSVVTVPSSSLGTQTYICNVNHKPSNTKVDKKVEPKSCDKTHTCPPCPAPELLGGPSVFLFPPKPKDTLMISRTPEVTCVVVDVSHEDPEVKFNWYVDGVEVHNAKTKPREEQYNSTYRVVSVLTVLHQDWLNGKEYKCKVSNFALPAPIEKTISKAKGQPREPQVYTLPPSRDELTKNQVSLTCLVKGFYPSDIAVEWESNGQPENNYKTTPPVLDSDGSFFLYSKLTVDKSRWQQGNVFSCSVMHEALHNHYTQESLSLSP
light: B1 light
notes: Alteration in both H chains; also called Ho Ab K326_04F
B32: GpH7-B3 variant K334_05P/GpL16-k0 (antibody, human IgG1, kappa)
heavy: not shown
light: B1 light
notes: Alteration in both H chains; also called Ho Ab K334_05P
B33: GpH7-B3 variant I336_15Y/GpL16-k0 (antibody, human IgG1, kappa)
heavy: not shown
light: B1 light
notes: Alteration in both H chains; also called Ho Ab I336_15Y
B34: GpH7-B3 variant K326_06M/GpL16-k0 (antibody, human IgG1, kappa)
heavy: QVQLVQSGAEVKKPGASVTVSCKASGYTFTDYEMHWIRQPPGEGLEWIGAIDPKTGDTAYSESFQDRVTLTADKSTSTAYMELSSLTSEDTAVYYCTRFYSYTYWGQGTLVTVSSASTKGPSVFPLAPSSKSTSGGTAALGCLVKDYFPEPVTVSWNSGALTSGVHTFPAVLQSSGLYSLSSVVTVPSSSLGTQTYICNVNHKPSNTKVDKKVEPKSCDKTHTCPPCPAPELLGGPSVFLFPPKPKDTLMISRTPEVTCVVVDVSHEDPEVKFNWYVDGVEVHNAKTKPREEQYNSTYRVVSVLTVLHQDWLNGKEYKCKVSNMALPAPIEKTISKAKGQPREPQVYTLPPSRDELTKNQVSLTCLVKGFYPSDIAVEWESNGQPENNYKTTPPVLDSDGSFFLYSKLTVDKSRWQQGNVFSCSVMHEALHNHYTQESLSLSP
light: B1 light
notes: Alteration in both H chains; also called Ho Ab K326_06M
B35: GpH7-B3 variant K334_13S/GpL16-k0 (antibody, human IgG1, kappa)
heavy: not shown
light: B1 light
notes: Alteration in both H chains; also called Ho Ab K334_13S
B36: GpH7-B3 variant K326_08L/GpL16-k0 (antibody, human IgG1, kappa)
heavy: not shown
light: B1 light
notes: Alteration in both H chains; also called Ho Ab K326_08L
B37: GpH7-B3 variant K334_07I/GpL16-k0 (antibody, human IgG1, kappa)
heavy: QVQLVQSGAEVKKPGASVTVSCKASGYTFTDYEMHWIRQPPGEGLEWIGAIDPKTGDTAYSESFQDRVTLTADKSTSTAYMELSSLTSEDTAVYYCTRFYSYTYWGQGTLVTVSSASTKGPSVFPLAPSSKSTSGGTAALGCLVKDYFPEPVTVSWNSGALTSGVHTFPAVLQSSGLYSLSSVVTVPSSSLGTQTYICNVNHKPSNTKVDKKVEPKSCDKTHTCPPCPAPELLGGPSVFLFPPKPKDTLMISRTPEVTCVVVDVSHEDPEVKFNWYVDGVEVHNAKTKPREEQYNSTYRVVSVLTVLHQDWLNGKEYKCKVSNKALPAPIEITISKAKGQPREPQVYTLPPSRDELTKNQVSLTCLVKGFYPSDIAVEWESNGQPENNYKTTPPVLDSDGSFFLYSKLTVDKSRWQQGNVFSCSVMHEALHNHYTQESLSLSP
light: B1 light
notes: Alteration in both H chains; also called Ho Ab K334_07I
B38: GpH7-B3 variant K326_19Q/GpL16-k0 (antibody, human IgG1, kappa)
heavy: not shown
light: B1 light
notes: Alteration in both H chains; also called Ho Ab K326_19Q
B39: GpH7-B3 variant K334_14T/GpL16-k0 (antibody, human IgG1, kappa)
heavy: not shown
light: B1 light
notes: Alteration in both H chains; also called Ho Ab K334_14T
B40: GpH7-B3 variant K334_03V/GpL16-k0 (antibody, human IgG1, kappa)
heavy: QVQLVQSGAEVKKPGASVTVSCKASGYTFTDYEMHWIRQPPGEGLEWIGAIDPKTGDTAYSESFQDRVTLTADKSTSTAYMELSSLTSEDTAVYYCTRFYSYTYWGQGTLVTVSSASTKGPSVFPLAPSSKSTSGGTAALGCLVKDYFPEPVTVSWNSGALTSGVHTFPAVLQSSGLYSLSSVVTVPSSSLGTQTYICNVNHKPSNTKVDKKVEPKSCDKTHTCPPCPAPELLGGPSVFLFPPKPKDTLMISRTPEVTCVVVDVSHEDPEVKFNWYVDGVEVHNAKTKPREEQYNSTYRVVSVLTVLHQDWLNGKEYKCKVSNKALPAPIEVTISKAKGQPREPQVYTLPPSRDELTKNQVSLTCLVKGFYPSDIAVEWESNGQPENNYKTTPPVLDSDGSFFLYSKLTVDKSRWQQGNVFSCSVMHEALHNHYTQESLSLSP
light: B1 light
notes: Alteration in both H chains; also called Ho Ab K334_03V
B41: GpH7-B3 variant K334_02A/GpL16-k0 (antibody, human IgG1, kappa)
heavy: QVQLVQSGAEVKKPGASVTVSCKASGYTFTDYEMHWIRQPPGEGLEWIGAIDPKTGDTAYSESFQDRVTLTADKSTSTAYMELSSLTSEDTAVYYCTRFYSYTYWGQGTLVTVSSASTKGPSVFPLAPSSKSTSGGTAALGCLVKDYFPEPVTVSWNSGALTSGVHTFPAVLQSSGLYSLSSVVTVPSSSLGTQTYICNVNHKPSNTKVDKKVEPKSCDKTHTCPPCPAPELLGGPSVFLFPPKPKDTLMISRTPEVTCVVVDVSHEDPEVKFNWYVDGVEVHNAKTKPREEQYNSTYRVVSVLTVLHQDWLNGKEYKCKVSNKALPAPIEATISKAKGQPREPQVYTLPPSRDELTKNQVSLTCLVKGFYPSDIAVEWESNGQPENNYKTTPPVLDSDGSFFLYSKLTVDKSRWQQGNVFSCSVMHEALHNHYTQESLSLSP
light: B1 light
notes: Alteration in both H chains; also called Ho Ab K334_02A
B42: GpH7-B3 variant K334_18N/GpL16-k0 (antibody, human IgG1, kappa)
heavy: not shown
light: B1 light
notes: Alteration in both H chains; also called Ho Ab K334_18N
B43: GpH7-B3 variant K326_10E/GpL16-k0 (antibody, human IgG1, kappa)
heavy: not shown
light: B1 light
notes: Alteration in both H chains; also called Ho Ab K326_10E

The binders below were run against T1, FcγRIIIa extracellular domain with C-terminal His tag (human, UniProt P08637 17-208) (assay: SPR (Biacore), FcγR as analyte over captured antibody; GpH7-A5/GpH7-B3/GpL16-k0 = 100).
T1 construct: extracellular domain; also called FcgRIIIa; 3a; not shown: His tag at the C terminus
T1 sequence (P08637 17-208): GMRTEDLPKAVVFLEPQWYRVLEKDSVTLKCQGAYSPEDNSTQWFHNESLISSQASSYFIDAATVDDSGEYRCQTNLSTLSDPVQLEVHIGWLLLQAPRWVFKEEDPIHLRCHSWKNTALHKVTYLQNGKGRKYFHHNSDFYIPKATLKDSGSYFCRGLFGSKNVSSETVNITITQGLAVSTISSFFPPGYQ

Row | Binder | He/Con_3a
1 | B1 | 65.1 % of control
2 | B2 | 104 % of control
3 | B3 | 8.2 % of control
4 | B4 | 29.5 % of control
5 | B5 | 31.6 % of control
6 | B6 | 56.4 % of control
7 | B7 | 65.5 % of control
8 | B8 | 93.1 % of control
9 | B9 | 73.5 % of control
10 | B10 | 61.8 % of control
11 | B11 | 56.7 % of control
12 | B12 | 39.4 % of control
13 | B13 | 32.8 % of control
14 | B14 | 72.1 % of control
15 | B15 | 54.5 % of control
16 | B16 | 73.4 % of control
17 | B17 | 64.5 % of control

The binders below were run against T2, FcγRIIb extracellular domain with C-terminal His tag (human, UniProt P31994 43-217) in the same assay as above.
T2 construct: extracellular domain; also called FcgRIIb; 2b; not shown: His tag at the C terminus
T2 sequence (looked up): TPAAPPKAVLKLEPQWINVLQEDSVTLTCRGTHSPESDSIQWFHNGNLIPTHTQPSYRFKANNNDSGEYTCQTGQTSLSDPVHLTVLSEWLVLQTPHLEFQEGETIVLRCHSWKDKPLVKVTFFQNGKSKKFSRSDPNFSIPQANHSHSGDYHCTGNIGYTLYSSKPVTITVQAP

Row | Binder | He/Con_2b
18 | B1 | 177 % of control
19 | B2 | 134 % of control
20 | B3 | 11.9 % of control
21 | B4 | 99.5 % of control
22 | B5 | 69.1 % of control
23 | B6 | 95.4 % of control
24 | B7 | 94.7 % of control
25 | B8 | 120 % of control
26 | B9 | 108 % of control
27 | B10 | 86.3 % of control
28 | B11 | 72.8 % of control
29 | B12 | 91.6 % of control
30 | B13 | 169 % of control
31 | B14 | 91.5 % of control
32 | B15 | 79.3 % of control
33 | B16 | 92.2 % of control
34 | B17 | 88.2 % of control

Each binder was assayed against T3, FcγRIa (human, UniProt P12314 16-292) (assay: SPR (Biacore), relative binding; control HoCon Ab GpH7-B3/GpL16-k0).
T3 construct: extracellular domain; also called FcgRI; FcgRIa; not shown: His tag attached to the C terminus
T3 sequence (P12314 16-292): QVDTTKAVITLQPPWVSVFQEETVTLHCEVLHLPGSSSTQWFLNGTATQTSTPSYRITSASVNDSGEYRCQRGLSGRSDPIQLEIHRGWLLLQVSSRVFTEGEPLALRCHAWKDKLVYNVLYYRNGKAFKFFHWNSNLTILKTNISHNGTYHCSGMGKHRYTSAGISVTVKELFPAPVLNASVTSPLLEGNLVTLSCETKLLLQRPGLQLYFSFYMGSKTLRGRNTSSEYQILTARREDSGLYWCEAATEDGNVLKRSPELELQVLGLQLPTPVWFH

Row | Binder | Ho/Con_1a
35 | B18 | 106 % of control (=100)
36 | B19 | 114 % of control (=100)
37 | B20 | 106 % of control (=100)
38 | B21 | 108 % of control (=100)
39 | B22 | 106 % of control (=100)
40 | B23 | 108 % of control (=100)
41 | B24 | 104 % of control (=100)
42 | B25 | 106 % of control (=100)
43 | B26 | 103 % of control (=100)
44 | B27 | 102 % of control (=100)
45 | B28 | 106 % of control (=100)
46 | B29 | 107 % of control (=100)
47 | B30 | 104 % of control (=100)
48 | B31 | 102 % of control (=100)
49 | B32 | 106 % of control (=100)
50 | B33 | 110 % of control (=100)
51 | B34 | 104 % of control (=100)
52 | B35 | 106 % of control (=100)
53 | B36 | 101 % of control (=100)
54 | B37 | 107 % of control (=100)
55 | B38 | 105 % of control (=100)
56 | B39 | 106 % of control (=100)
57 | B40 | 105 % of control (=100)
58 | B41 | 106 % of control (=100)
59 | B42 | 108 % of control (=100)
60 | B43 | 105 % of control (=100)

What follows are binders tested against T1, FcγRIIIa extracellular domain with … (assay: SPR (Biacore); He/Con_3a divided by He/Con_2b (FcγRIIb)).

Row | Binder | He_3a/2b (IIIa/IIb) [ratio]
61 | B1 | 0.37
62 | B2 | 0.78
63 | B3 | 0.69
64 | B4 | 0.3
65 | B5 | 0.46
66 | B6 | 0.59
67 | B7 | 0.69
68 | B8 | 0.77
69 | B9 | 0.68
70 | B10 | 0.72
71 | B11 | 0.78
72 | B12 | 0.43
73 | B13 | 0.19
74 | B14 | 0.79
75 | B15 | 0.69
76 | B16 | 0.8
77 | B17 | 0.73
